Data taken from US20250277054A1 (WUXI BIOLOGICS IRELAND, published 2025).
Where two headings read alike, the source gives them in different places.

Experiments:
[1] = target: T1, Human PSMA.ECD.His (Acro) (human, UniProt Q04609 44-750); experiment: ELISA, coated human PSMA protein (His tag)
T1 construct: extracellular domain; Bought protein with His tag; also called human PSMA ECD protein; Human PSMA/FOLH1 protein, His tag
Protocol: (§1) Briefly, 1 μg/mL human PSMA protein (His tag) were coated onto wells in ELISA plate in coating buffer at 4° C. for 16 hours. After washing the plate with 1×PBST once, the plate was blocked by using 200 μL/well 2% BSA for one hour. After washing the plate for three times with 1×PBST, various concentrations of antibodies diluted in 2% BSA (5-fold serially diluted from 200 nM to 0.004096 pM) were added to the wells and the plate was incubated for one hour at ambient temperature. After washing the plate three times with 1×PBST, Goat anti-human-IgG-Fc-HRP (at 1:5000 dilution) was added into wells and incubated for one hour. After washing six times with 1×PBST, 100 μL/well of TMB substrate solution was added into wells and incubated for 5 minutes in dark and then 100 μL/well of 2M HCl was added into wells to stop the reaction. The relative light unit (RLU) was measured at OD₄₅₀ and OD₅₄₀ by SPECTRAMAX M5E. The binding EC₅₀ was calculated by GraphPad Prism 7 software by plotting antibody concentration (x-axis) versus OD₄₅₀₋₅₄₀ (y-axis) and analyzing as: Nonlinear regression (curve fit)-log (agonist) vs. response-Variable slope (four parameters).

[2] = target: T2, Mouse PSMA.ECD.His (Acro) (mouse, UniProt O35409 45-752); experiment: ELISA, coated mouse PSMA protein (His tag)
T2 construct: extracellular domain; Bought protein with His tag; also called mouse PSMA protein (His tag); Mouse PSMA/FOLH1 protein, His tag
Protocol: (§2) Briefly, 1 μg/mL cynomolgus PSMA protein (His tag) and 2 μg/mL mouse PSMA protein (His tag) were coated onto wells in an ELISA plate in coating buffer at 4° C. for 16 hours. After washing plate with 1×PBST once, the plate was blocked by using 200 μL/well 2% BSA for one hour. […] After washing three times with 1×PBST, Goat anti-human-IgG-Fc-HRP (at 1:5000 dilution) was added and incubated for one hour. After washing six times with 1×PBST, 100 μL/well of TMB substrate solution was added into wells and incubated for 5 minutes in dark and then 100 μL/well of 2M HCL were added into wells to stop the reaction. The relative light unit (RLU) was measured at OD₄₅₀ and OD₅₄₀ by SPECTRAMAX M5E. EC₅₀ was determined as described above.

[3] = target: T3, Human CD3δ & CD3ε heterodimer protein (Flag & His Tag) (human, UniProt P04234 22-105; P07766 23-126); experiment: SPR (Biacore 8K), antibody captured by anti-human IgG Fc, CD3δ & CD3ε heterodimer injected, 1:1 model
T3 construct: Bought heterodimer with Flag and His tags
Protocol: Each antibody was captured on an anti-human IgG Fc antibody immobilized CM5 sensor chip (Cytiva). human CD3δ & CD3ε heterodimer at different concentrations were injected over the sensor chip at a flow rate of 30 μL/min for an association phase of 120 s, followed by 240 s dissociation. The chip was regenerated by 10 mM glycine (pH 1.5) after each binding cycle.
The sensorgrams of blank surface and buffer channel were subtracted from the test sensorgrams. The experimental data was fitted by 1:1 binding model. Molecular weight of 31 kDa was used to calculate the molar concentration of human CD3δ & CD3ε heterodimer.

[4] = target: T4, human PSMA on human prostate cancer cells (LNCaP, C4-2, 22Rv1) (human, UniProt Q04609 1-750); experiment: flow cytometry on C4-2 cells (PSMA high)
T4 construct: whole, on cells; also called human PSMA-expressing LNCaP cells; C4-2 (PSMA High)
Protocol: (§3) After washing twice with 1×PBS/1% BSA/0.1 mM EDTA, Alexa fluor 647-labeled goat anti-human IgG Fc (at 1:500 dilution) was added and the plate was incubated at 4° C. for half an hour in dark. After washing twice with 1×PBS/1% BSA/0.1 mM EDTA, cells were re-suspended in 1×PBS/1% BSA/0.1 mM EDTA, and mean fluorescence intensity (MFI) was measured by a flow cytometer and analyzed by FLOWJO. The binding EC₅₀ was calculated by GraphPad Prism 7 software by plotting antibody concentration (x-axis) versus […] (y-axis) and analyzing as: Nonlinear regression (curve fit)-log (agonist) vs. response-Variable slope (four parameters).

[5] = target: T5, Cyno PSMA.ECD.His (Acro) (cynomolgus, UniProt A0A2K5VNZ0 44-750); experiment: ELISA, coated cynomolgus PSMA protein (His tag)
T5 construct: extracellular domain; Bought protein with His tag; also called cynomolgus PSMA ECD protein; Cynomolgus PSMA/FOLH1 protein, His tag
Protocol: as §2

[6] = target: T4, human PSMA on human prostate cancer …; experiment: cell-based or functional assay
[7] = target: T4, human PSMA on human prostate cancer …; experiment: cell-based or functional assay; remark: listed apart in the source
[8] = target: T4, human PSMA on human prostate cancer …; experiment: flow cytometry on LNCaP cells (PSMA high)
Protocol: as §3

[9] = target: T5, Cyno PSMA.ECD.His (Acro); experiment: ELISA, coated cynomolgus PSMA protein (His tag); remark: listed apart in the source
Protocol: as §2

[10] = target: T6, Biotinylated Human PSMA/FOLH1 Protein, His, Avitag (human, UniProt Q04609 44-750, biotin label (Avitag)); experiment: SPR (Biacore 8K), biotinylated human PSMA captured on streptavidin chip, antibody injected, single-cycle, 1:1 model
T6 construct: Bought protein; also called Human PSMA Protein (His Tag & biotin label)
Protocol: Biotinylated human PSMA was captured on a streptavidin-immobilized CM5 sensor chip (Cytiva). Antibodies at different concentrations were injected over the sensor chip in an injection type of single-cycle at a flow rate of 30 μL/min for an association phase of 180 s, followed by 600-3600 s dissociation. The chip was then regenerated by 10 mM glycine (pH1.5) at the last binding cycle.
The sensorgrams of the blank surface and buffer channel were subtracted from the test sensorgrams. The experimental data were fitted by 1:1 binding model.

[11] = target: T1, Human PSMA.ECD.His (Acro); experiment: ELISA, coated human PSMA protein (His tag); remark: listed apart in the source
Protocol: as §1

[12] = target: T4, human PSMA on human prostate cancer …; experiment: flow cytometry on 22Rv1 cells (PSMA low)
Protocol: as §3

[13] = target: T7, full-length cynomolgus PSMA on Flp-in CHO cells (WBP3xx042-FlpinCHO.cPro1.B7) (cynomolgus, UniProt A0A2K5VNZ0 1-750); experiment: flow cytometry on FlpInCHO-cyno PSMA cells
T7 construct: whole, on cells; also called Cyno PSMA+ CHO cells; FlpInCHO-cyno PSMA
Protocol: WBP3xx042-FlpinCHO.cPro1.B7 (5×10⁴ cells) was incubated with various concentrations of antibodies 4° C. for one hour. After washing twice with 1×PBS/1% BSA/0.1 mM EDTA, secondary antibody, Alexa fluor 647-labeled goat anti-human IgG Fc, was added and the plate was incubated at 4° C. for half an hour in dark. After washing twice with 1×PBS/1% BSA/0.1 mM EDTA, cells were re-suspended in 1×PBS/1% BSA/0.1 mM EDTA. MFI and EC₅₀ were determined as described above.

T3 sequence (P04234 22-105, stated change not applied, form in doubt, chain 1 of 2): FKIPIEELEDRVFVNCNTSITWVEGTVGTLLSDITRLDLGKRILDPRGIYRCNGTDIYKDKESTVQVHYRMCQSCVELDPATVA
T3 sequence (P07766 23-126, stated change not applied, form in doubt, chain 2 of 2): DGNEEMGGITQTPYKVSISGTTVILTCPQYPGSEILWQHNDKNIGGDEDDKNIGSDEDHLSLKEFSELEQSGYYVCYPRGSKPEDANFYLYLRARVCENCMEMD
T6 sequence (Q04609 44-750 limits assumed): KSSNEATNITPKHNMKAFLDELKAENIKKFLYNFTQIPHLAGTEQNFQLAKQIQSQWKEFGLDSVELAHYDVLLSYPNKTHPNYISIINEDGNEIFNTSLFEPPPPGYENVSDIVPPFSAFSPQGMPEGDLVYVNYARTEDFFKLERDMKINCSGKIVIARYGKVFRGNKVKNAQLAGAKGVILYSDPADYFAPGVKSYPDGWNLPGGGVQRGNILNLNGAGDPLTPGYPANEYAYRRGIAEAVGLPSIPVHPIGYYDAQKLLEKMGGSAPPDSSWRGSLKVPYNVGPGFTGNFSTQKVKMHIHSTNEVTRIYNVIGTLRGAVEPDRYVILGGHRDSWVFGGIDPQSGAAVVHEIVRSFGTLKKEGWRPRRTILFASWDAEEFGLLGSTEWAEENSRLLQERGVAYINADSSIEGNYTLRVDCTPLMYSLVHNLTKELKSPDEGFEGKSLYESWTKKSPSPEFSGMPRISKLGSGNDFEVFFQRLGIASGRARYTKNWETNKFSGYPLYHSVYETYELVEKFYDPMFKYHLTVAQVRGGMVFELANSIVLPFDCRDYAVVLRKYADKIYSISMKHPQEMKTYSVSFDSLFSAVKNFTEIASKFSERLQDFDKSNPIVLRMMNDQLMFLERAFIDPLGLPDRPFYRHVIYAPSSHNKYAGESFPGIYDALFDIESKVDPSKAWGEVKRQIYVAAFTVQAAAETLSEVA
T4 sequence (Q04609 whole entry): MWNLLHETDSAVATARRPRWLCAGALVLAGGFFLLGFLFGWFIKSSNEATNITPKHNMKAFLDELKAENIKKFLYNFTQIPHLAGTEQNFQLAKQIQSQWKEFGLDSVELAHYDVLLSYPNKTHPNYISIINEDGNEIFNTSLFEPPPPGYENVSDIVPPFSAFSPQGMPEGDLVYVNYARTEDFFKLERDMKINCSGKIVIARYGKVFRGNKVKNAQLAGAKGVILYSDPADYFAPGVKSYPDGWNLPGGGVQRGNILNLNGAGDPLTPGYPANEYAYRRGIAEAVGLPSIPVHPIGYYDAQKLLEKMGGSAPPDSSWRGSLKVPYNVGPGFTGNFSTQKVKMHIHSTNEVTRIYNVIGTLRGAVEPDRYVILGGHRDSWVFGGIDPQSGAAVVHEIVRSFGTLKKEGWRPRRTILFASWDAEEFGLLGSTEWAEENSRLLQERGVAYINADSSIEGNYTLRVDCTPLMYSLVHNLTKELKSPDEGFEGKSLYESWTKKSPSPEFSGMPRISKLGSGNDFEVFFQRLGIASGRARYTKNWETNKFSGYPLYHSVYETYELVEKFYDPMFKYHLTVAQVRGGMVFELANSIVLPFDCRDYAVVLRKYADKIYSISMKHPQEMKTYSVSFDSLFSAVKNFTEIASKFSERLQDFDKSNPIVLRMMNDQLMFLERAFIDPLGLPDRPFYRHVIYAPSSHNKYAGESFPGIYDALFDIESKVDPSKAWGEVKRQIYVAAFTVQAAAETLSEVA
T1 sequence (Q04609 44-750): as the sequence (Q04609 44-750 limits assumed) above
T2 sequence (O35409 45-752): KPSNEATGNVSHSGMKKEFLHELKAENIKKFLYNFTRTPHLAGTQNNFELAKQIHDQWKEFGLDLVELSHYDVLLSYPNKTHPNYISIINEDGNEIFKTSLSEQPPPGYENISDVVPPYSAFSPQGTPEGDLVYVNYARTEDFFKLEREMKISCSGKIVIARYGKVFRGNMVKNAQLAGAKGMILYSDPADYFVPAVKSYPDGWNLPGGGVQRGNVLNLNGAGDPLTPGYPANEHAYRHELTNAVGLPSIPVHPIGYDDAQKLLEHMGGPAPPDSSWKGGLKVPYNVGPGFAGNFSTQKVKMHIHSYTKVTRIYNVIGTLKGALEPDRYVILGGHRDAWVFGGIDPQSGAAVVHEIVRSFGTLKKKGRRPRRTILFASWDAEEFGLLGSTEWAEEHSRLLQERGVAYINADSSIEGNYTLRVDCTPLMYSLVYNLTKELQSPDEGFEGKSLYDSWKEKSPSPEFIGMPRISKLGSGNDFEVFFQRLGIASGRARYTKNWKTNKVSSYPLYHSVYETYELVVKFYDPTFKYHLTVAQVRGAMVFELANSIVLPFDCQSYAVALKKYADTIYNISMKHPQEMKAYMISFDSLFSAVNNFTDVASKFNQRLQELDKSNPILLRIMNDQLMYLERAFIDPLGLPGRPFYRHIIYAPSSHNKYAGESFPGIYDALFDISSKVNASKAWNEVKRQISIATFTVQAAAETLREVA

- EC50 [1]: 0.03 nM
- EC50 [2]: 1.34 nM
- Kd [3]: 60.2 nM
- koff [3]: 0.0331 s⁻¹
- kon [3]: 550000 M⁻¹ s⁻¹
- EC50 [4]: 1.48 nM
- EC50 [5]: 0.05 nM
- EC50 of IFN-γ release, CD3+ T + C4-2 [7]: ~0.16 nM
- EC50 [8]: 0.58 nM
- EC50 [9]: 0.045 nM
- Kd [10]: 0.0158 nM
- koff [10]: 1.39e-05 s⁻¹
- kon [10]: 880000 M⁻¹ s⁻¹
- EC50 [11]: 0.027 nM
- EC50 [12]: 0.29 nM
- EC50 [13]: 3.2 nM
B1: W308051-T3U5.E17-61.uIgG4V322 (bispecific antibody)
heavy 1: QVQLVQSGAEVKKPGSSVKVSCKASGFAFTDYYIHWVRQAPGQGLEWMGWISPGNVNTKYNENFKGRVTITADKSTSTAYMELSSLRSEDTAVYYCARDGYSLYYFDYWGQGTLVTVLEDLKNVFPPEVAVFEPSECEISHTQKATLVCLATGFYPDHVELSWWVNGKEVHSGVCTDPQPLKEQPALQDSRYALSSRLRVSATFWQNPRNHFRCQVQFYGLSENDEWTQDRAKPVTQIVSAEAWGRYGPPCPPCPAPEAAGGPSVFLFPPKPKDTLMISRTPEVTCVVVDVSQEDPEVQFNWYVDGVEVHNAKTKPREEQFNSTYRVVSVLTVLHQDWLNGKEYKCKVSNKGLPSSIEKTISKAKGQPREPQVYTLPPCQEEMTKNQVSLWCLVKGFYPSDIAVEWESNGQPENNYKTTPPVLDSDGSFFLYSRLTVDKSRWQEGNVFSCSVMHEALHNHYTQKSLSLSLG
light 1: DIVMTQSPDSLAVSLGERATINCKSSQSLLNSRTRKNYLAWYQQKPGQPPKLLIYWASTRQSGVPDRFSGSGSGTDFTLTISSLQAEDVAVYYCTQSHTLRTFGGGTKVEIKPDIQNPDPAVYQLRDSKSSDKSVCLFTDFDSQTQVSQSKDSDVYITDKCVLDMRSMDFKSNSAVAWSQKSDFACANAFQNSIIPEDTFFCS
heavy 2: EVQLVQSGAEVKKPGESLKISCKASGYSFTTYWIGWVRQMPGKGLELMGIIYPYDSDTRYSPSFQGQVTISADKSINTAYLQWSSLKASDTAMYYCARITGGYLFDYWGQGILVTVSSASTKGPSVFPLAPCSRSTSESTAALGCLVKDYFPEPVTVSWNSGALTSGVHTFPAVLQSSGLYSLSSVVTVPSSSLGTKTYTCNVDHKPSNTKVDKRVESKYGPPCPPCPAPEAAGGPSVFLFPPKPKDTLMISRTPEVTCVVVDVSQEDPEVQFNWYVDGVEVHNAKTKPREEQFNSTYRVVSVLTVLHQDWLNGKEYKCKVSNKGLPSSIEKTISKAKGQPREPQVCTLPPSQEEMTKNQVSLSCAVKGFYPSDIAVEWESNGQPENNYKTTPPVLDSDGSFFLVSRLTVDKSRWQEGNVFSCSVMHEALHNHYTQKSLSLSLG
light 2: QSALTQPPSASGSPGQSVTISCTGTSSDVGGYNYVSWYQQHPGKAPKLMIYEVTKRPSGVPDRFSGSKSGNTASLTVSGLQAEDEADYYCTSYAGSNKYVFGTGTKVTVLGQPKAAPSVTLFPPSSEELQANKATLVCLISDFYPGAVTVAWKADSSPVKAGVETTTPSKQSNNKYAASSYLSLTPEQWKSHKSYSCQVTHEGSTVEKTVAPTECS
notes: CD3xPSMA bispecific; also called WBP308051
- IC50 of T cell cytotoxicity, CD3+ T + C4-2 [6]: 0.082 nM
- IC50 of T cell cytotoxicity, CD3+ T + LNCaP [6]: 0.037 nM
